Assay results: publication PMC6344864 (Nucleic Acids Research, 2018)
Each block holds one binder with its values, some of them ahead of it.

Legend:
Rdh54/Tid1 = target: T1, Rdh54/Tid1 (Saccharomyces cerevisiae, UniProt P38086 1-958); assay: fluorescence polarization
T1 sequence: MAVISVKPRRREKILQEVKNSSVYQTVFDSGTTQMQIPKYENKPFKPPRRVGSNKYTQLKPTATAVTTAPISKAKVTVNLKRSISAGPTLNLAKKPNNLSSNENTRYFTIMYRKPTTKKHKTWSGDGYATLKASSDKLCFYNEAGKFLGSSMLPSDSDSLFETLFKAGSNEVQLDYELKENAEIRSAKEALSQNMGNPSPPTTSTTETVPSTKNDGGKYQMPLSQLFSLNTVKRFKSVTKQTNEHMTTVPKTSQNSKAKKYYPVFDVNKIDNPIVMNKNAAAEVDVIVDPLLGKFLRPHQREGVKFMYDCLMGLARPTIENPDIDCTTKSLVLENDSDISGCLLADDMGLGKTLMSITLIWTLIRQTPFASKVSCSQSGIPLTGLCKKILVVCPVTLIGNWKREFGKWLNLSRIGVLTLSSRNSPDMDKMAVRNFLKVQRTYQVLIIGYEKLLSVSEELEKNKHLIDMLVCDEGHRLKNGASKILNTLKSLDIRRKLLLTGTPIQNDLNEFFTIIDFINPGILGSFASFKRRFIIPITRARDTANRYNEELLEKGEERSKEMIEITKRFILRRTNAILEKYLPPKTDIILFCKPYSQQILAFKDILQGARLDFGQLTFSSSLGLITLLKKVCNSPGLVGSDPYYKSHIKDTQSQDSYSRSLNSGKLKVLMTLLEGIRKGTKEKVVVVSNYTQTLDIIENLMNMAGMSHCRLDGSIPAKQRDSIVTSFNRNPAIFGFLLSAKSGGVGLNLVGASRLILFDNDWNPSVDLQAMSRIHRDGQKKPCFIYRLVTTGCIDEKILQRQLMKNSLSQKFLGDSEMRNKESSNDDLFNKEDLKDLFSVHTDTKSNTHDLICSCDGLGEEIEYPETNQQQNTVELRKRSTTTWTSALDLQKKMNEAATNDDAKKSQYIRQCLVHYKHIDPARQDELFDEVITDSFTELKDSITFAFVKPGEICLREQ

His6-tagged Dmc1 = target: T2, His6-tagged Dmc1 (Saccharomyces cerevisiae, UniProt P25453 1-334); assay: co-IP
T2 sequence (looked up): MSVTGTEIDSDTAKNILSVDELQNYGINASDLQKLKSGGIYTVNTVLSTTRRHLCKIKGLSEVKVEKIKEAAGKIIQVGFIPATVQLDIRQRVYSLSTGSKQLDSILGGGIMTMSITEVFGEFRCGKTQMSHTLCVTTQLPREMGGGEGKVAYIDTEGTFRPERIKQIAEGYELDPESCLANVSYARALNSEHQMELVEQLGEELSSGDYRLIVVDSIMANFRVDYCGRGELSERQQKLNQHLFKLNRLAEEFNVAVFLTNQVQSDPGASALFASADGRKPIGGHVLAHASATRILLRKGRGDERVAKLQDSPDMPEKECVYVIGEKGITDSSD

[1] = target: Replication protein A (RPA), Saccharomyces cerevisiae (Saccharomyces cerevisiae, UniProt P22336 1-621; P26754 1-273; P26755 1-122); assay: pull-down
Replication protein A (RPA), Saccharomyces cerevisiae, sequence (P22336 whole entry, chain 1 of 3): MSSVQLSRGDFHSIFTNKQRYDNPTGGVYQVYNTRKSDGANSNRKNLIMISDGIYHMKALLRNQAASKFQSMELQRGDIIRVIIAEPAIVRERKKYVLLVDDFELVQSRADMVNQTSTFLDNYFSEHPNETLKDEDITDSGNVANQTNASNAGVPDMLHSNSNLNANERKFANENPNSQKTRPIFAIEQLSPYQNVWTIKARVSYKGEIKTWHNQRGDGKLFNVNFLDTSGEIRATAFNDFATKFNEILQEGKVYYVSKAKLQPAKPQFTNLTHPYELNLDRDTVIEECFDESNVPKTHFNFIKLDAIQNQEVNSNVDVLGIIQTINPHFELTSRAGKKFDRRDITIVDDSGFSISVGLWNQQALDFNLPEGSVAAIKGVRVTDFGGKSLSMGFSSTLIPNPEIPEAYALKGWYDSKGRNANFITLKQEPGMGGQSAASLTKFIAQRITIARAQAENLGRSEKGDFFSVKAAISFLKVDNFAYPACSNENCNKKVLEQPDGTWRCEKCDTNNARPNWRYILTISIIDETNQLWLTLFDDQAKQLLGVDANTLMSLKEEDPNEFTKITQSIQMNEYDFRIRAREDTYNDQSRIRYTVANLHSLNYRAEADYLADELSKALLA
Replication protein A (RPA), Saccharomyces cerevisiae, sequence (P26754 whole entry, chain 2 of 3): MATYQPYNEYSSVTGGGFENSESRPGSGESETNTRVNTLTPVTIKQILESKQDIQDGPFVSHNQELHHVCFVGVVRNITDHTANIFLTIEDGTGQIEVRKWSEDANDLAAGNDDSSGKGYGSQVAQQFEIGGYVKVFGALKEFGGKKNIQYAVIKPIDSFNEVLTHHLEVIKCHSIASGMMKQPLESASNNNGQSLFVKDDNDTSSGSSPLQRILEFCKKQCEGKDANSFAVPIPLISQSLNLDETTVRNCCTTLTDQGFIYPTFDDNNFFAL
Replication protein A (RPA), Saccharomyces cerevisiae, sequence (P26755 whole entry, chain 3 of 3): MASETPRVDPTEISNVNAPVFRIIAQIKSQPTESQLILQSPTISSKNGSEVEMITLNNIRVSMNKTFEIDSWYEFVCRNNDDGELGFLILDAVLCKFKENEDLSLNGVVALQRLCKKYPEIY

B1: 84-mer ssDNA (ssDNA)
DNA: GGTAGCGGTTGGGTGAGTGGTGGGGAGGGTCGGGAGGTGGCGTAGAAACATGATAGGAATGTGAATGAATGAAGTACAAGTAAA
Kd (Rdh54/Tid1): 230 nM

binding result (His6-tagged Dmc1): binds | binding result [1]: binds
B2: His6-tagged Mei5-Sae3 heterodimer (complex, Saccharomyces cerevisiae)
chain 1: MHNQEEWLDKDKTLVNEEENTCINHSYTKKDTNNYRVGKSGIKDLKKPTNQKEIAIKNRELTKQLTLLRQENNHLQQACKILSENKIIENRKSIEKWRTICEMELSFILNSTLIKINRMGGYKDFLEKEMEAKKRRLEYQIDNGMEDQICEIKESDDFRQLSEVEKQEWESQMNEQLKELEKKKIAELEKLNKVLHDSEGKDFGMAELCTRLKLDYSLIFPQ
chain 2: MNYLETQLNKKQKQIQEYESMNGNLIKMFEQLSKEKKNDETPKKISSTYIKELKEYNELRDAGLRLAQIIADEKQCKIKDVFEEIGYSMKD
